Data: patent publication US20240173421A1 (Seagen, published 2024)
Where two headings read alike, the source gives them in different places.

Tests used:
[1] = target: T1, CD16a (FcγRIIIa) on Jurkat NFAT reporter cells (UniProt P08637 17-254, limits assumed); assay: cell-based or functional assay
[2] = target: T2, FcgRIIa (NFAT activity assay) (UniProt P12318 34-317); assay: cell-based or functional assay
T2 sequence (looked up): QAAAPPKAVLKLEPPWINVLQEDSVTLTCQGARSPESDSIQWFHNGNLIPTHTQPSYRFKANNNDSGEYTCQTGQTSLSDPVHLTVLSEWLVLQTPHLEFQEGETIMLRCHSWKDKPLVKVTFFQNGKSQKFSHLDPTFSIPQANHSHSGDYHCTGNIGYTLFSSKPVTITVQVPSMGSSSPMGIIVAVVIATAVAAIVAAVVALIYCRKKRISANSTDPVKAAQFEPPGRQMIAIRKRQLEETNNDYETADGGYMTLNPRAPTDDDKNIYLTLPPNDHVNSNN

[3] = target: FcgRIa (NFAT activity assay) (UniProt P12314 16-374); assay: cell-based or functional assay
Sequence of FcgRIa (NFAT activity assay) (P12314 16-374): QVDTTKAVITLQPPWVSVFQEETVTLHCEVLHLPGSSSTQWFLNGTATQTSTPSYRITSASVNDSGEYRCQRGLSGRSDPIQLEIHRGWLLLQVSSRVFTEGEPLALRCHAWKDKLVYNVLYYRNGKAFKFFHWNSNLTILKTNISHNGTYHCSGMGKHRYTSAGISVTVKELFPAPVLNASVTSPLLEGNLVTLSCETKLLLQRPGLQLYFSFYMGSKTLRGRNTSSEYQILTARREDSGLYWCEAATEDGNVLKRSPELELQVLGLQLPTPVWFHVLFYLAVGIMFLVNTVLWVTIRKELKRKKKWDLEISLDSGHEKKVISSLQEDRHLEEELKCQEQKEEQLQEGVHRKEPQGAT

FcgRIIb = target: T3, FcgRIIb (human, UniProt P31994 43-217, biotinylated); assay: BLI, FcγR-monomeric Fc fusion on streptavidin sensor
T3 sequence (looked up): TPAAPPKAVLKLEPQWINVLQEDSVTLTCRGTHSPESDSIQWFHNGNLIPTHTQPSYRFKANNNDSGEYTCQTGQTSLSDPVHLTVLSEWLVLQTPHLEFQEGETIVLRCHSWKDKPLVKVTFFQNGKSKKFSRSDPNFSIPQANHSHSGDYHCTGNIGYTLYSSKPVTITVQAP

[4] = target: T1, CD16a (FcγRIIIa) on Jurkat NFAT …; assay: cell-based or functional assay; remark: listed apart in the source
[5] = target: T1, CD16a (FcγRIIIa) on Jurkat NFAT …; assay: cell-based or functional assay; remark: listed apart in the source
[6] = target: T1, CD16a (FcγRIIIa) on Jurkat NFAT …; assay: cell-based or functional assay; remark: listed apart in the source
[7] = target: T1, CD16a (FcγRIIIa) on Jurkat NFAT …; assay: cell-based or functional assay; remark: listed apart in the source
[8] = target: T1, CD16a (FcγRIIIa) on Jurkat NFAT …; assay: cell-based or functional assay; remark: listed apart in the source
[9] = target: T1, CD16a (FcγRIIIa) on Jurkat NFAT …; assay: cell-based or functional assay; remark: listed apart in the source

T1 sequence (P08637 17-254 limits assumed): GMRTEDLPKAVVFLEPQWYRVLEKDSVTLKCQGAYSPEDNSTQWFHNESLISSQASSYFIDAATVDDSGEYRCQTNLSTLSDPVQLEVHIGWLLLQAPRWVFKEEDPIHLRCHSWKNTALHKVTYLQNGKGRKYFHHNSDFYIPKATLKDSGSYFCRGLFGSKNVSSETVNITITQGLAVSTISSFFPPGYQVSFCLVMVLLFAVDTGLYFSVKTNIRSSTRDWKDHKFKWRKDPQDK

B1: Anti-CD40-WT (antibody, human IgG1, kappa)
heavy: not shown
light: DIQMTQSPSSLSASVGDRVTITCRSSQSLVHSNGNTFLHWYQQKPGKAPKLLIYTVSNRFSGVPSRFSGSGSGTDFTLTISSLQPEDFATYFCSQTTHVPWTFGQGTKVEIKRTVAAPSVFIFPPSDEQLKSGTASVVCLLNNFYPREAKVQWKVDNALQSGNSQESVTEQDSKDSTYSLSSTLTLSKADYEKHKVYACEVTHQGLSSPVTKSFNRGEC
In the case of B1, the “EC50, NFAT activity assay” value [1] is reported as 0.16 µg/mL, the “EC50, NFAT activity assay” value [2] is reported as 0.08 µg/mL and the “EC50, NFAT activity assay” value [3] is reported as 0.09 µg/mL.

B2: Anti-CD40-AF-9(8) (antibody, human IgG1, kappa)
heavy: not shown
light: B1 light
modifications: reduced interchain-disulfide cysteine carries compound 9; afucosylated N-glycan; reduced interchain-disulfide cysteines carry compound 9 (maleimidopropionyl-PEG12)
In the case of B2, the “EC50, NFAT activity assay” value [1] is reported as 0.22 µg/mL, the “EC50, NFAT activity assay” value [2] is reported as 14.3 µg/mL and the “EC50, NFAT activity assay” value [3] is reported as 0.35 µg/mL.

B3: Anti-CD40-AF-1(6) (antibody, human IgG1, kappa)
heavy: not shown
light: B1 light
modifications: afucosylated N-glycan; compound 1 (disulfide-PEG12) on reduced interchain-disulfide cysteines, 6 per antibody, sites not stated
notes: 6 BPM per antibody; also called Anti-CD40-AF-1 6-load
In the case of B3, the Kd (FcgRIIb) is reported as 25 µM.

B4: Anti-CD40-AF-10 (antibody, human IgG1, kappa)
heavy: not shown
light: B1 light
modifications: reduced interchain-disulfide cysteine carries compound 10; afucosylated N-glycan; reduced interchain-disulfide cysteines carry compound 10 (maleimidopropionyl-PEG48)
In the case of B4, the “EC50, NFAT activity assay” value [1] is reported as 2.09 µg/mL, the “EC50, NFAT activity assay” value [2] is reported as 227 µg/mL and the “EC50, NFAT activity assay” value [3] is reported as 3.73 µg/mL.

B5: Anti-CD40-AF-1(2) (antibody, human IgG1, kappa)
heavy: not shown
light: B1 light
modifications: afucosylated N-glycan; compound 1 (disulfide-PEG12) on reduced interchain-disulfide cysteines, 2 per antibody, sites not stated
notes: 2 BPM per antibody; also called Anti-CD40-AF-1 2-load
B5 was tested, and the Kd (FcgRIIb) was 21 µM and the “EC50 (read off the curve), FcγRIIIa NFAT reporter assay” value (“EC50 … FcγRIIIa NFAT reporter assay” below) [4] was ~0.003 µg/mL.

B6: Anti-CD40-AF-1(4) (antibody, human IgG1, kappa)
heavy: not shown
light: B1 light
modifications: afucosylated N-glycan; compound 1 (disulfide-PEG12) on reduced interchain-disulfide cysteines, 4 per antibody, sites not stated
notes: 4 BPM per antibody; also called Anti-CD40-AF-1 4-load
B6 was tested, and the Kd (FcgRIIb) was 22 µM.

B7: Anti-CD40-AF-17 (antibody, human IgG1, kappa)
heavy: not shown
light: B1 light
modifications: reduced interchain-disulfide cysteine carries compound 17; afucosylated N-glycan; reduced interchain-disulfide cysteines carry compound 17 (maleimidocaproyl-(PEG4)2)
With B7 the “EC50 … FcγRIIIa NFAT reporter assay” value [5] was ~0.007 µg/mL.

B8: Anti-CD40-AF-12 with 2 load (antibody, human IgG1, kappa)
heavy: not shown
light: B1 light
modifications: afucosylated N-glycan; compound 12 (maleimidocaproyl-PEG12) on reduced interchain-disulfide cysteines, 2 per antibody, sites not stated
In the case of B8, the “EC50 … FcγRIIIa NFAT reporter assay” value [6] is reported as ~0.001 µg/mL.

B9: Anti-CD40-AF-1(8) (antibody)
heavy: not shown
light: B1 light
modifications: reduced interchain-disulfide cysteine carries compound 1; afucosylated N-glycan; reduced interchain-disulfide cysteines carry compound 1 (disulfide-PEG12)
For B9, the “EC50 … FcγRIIIa NFAT reporter assay” value [7] was ~0.007 µg/mL.

B10: Anti-CD40-AF (afucosylated) (antibody, human IgG1, kappa)
heavy: not shown
light: B1 light
B10 was tested, and the “EC50, NFAT activity assay” value [1] was 0.05 µg/mL, the “EC50, NFAT activity assay” value [2] was 0.09 µg/mL and the “EC50, NFAT activity assay” value [3] was 0.07 µg/mL. The “EC50 (read off the curve), CD16a NFAT reporter assay” value [8] was ~0.003 µg/mL, the “EC50 … FcγRIIIa NFAT reporter assay” value [6] was ~0.01 µg/mL and the “EC50 … FcγRIIIa NFAT reporter assay” value [5] was ~0.001 µg/mL. The “EC50 … FcγRIIIa NFAT reporter assay” value [9] was ~0.001 µg/mL and the “EC50 … FcγRIIIa NFAT reporter assay” value [4] was ~0.01 µg/mL.

B11: Anti-CD40-AF-12 with 4 load (antibody, human IgG1, kappa)
heavy: not shown
light: B1 light
modifications: afucosylated N-glycan; compound 12 (maleimidocaproyl-PEG12) on reduced interchain-disulfide cysteines, 4 per antibody, sites not stated
B11 was tested, and the “EC50 … FcγRIIIa NFAT reporter assay” value [6] was ~0.002 µg/mL.
